Laboratory results as given in patent US9683217B2, “In vitro culture conditions for T-cell acute lymphoblastic leukemia/lymphoma” (THE UNIVERSITY OF MIAMI, priority 2013, dated 2017).

B1: CP-751,871: an IGF-1 receptor (IGF1R) blocking antibody, specific for human IGF1R (antibody, chains of the INN, looked up)
heavy: EVQLLESGGGLVQPGGSLRLSCTASGFTFSSYAMNWVRQAPGKGLEWVSAISGSGGTTFYADSVKGRFTISRDNSRTTLYLQMNSLRAEDTAVYYCAKDLGWSDSYYYYYGMDVWGQGTTVTVSSASTKGPSVFPLAPCSRSTSESTAALGCLVKDYFPEPVTVSWNSGALTSGVHTFPAVLQSSGLYSLSSVVTVPSSNFGTQTYTCNVDHKPSNTKVDKTVERKCCVECPPCPAPPVAGPSVFLFPPKPKDTLMISRTPEVTCVVVDVSHEDPEVQFNWYVDGVEVHNAKTKPREEQFNSTFRVVSVLTVVHQDWLNGKEYKCKVSNKGLPAPIEKTISKTKGQPREPQVYTLPPSREEMTKNQVSLTCLVKGFYPSDIAVEWESNGQPENNYKTTPPMLDSDGSFFLYSKLTVDKSRWQQGNVFSCSVMHEALHNHYTQKSLSLSPG
light: DIQMTQFPSSLSASVGDRVTITCRASQGIRNDLGWYQQKPGKAPKRLIYAASRLHRGVPSRFSGSGSGTEFTLTISSLQPEDFATYYCLQHNSYPCSFGQGTKLEIKRTVAAPSVFIFPPSDEQLKSGTASVVCLLNNFYPREAKVQWKVDNALQSGNSQESVTEQDSKDSTYSLSSTLTLSKADYEKHKVYACEVTHQGLSSPVTKSFNRGEC
B2: IL-7: ligand for the IL-7 receptor; recombinant cytokine supplement (protein, UniProt P13232 26-177, looked up)
Interleukin-7: DCDIEGKDGKQYESVLMVSIDQLLDSMKEIGSNCLNNEFNFFKRHICDANKEGMFLFRAARKLRQFLKMNSTGDFDLHLLKVSEGTTILLNCTGQVKGRKPAALGEAQPTKSLEENKSLKEQKKLNDLCFLKRLLQEIKTCWNKILMGTKEH

Key:
human T-ALL lymphoblasts = experiment: Cytokine/growth factor subtraction and IGF1R blockade, resazurin-reduction cell growth assay; format: cell-based; settings: for importance of the supplemental cytokine for T-ALL growth: SCF, IGF-1, IL-2, IL-7 added alone or in combination, FIG. 3
Protocol: A resazurin-reduction cell growth assay was performed on (A-B) primary and (C) xenograft-expanded T-ALL. Cells were cultured and passaged as described in FIG. 1. Cytokines and growth factors were subtracted out of the complete media and cells were assayed for growth using a resazurin reduction assay. […] Significance: * p<0.05, ** p<0.01, and *** p<0.001.
Cell Titer Blue (Promega) was added to a co-culture, 5 μl/well for a 12-well plate and 1 μl/well for a 96-well plate, and allowed to incubate for 2-6 hours depending on the number and type of cells present in the well. Cultures were then analyzed using a Tecan GENios Flourometric plate reader. The plate reader was set to read from the bottom at 535 nm excitation and 590 nm emission wavelengths, at optimal gain with an integration time of 80 μs and a lag time of 0 μs. The plate was orbitally shaken in the machine for 5 sec prior to reading.
Studies were also conducted with human T-ALL primary cells (FIGS. 3A-3B) and human T-ALL cells that were previously expanded in immunodeficient NSG mice (FIG. 3C).

IGF1R = IGF1R (Homo sapiens, UniProt P08069); settings: read-out: Kd of insulin for IGF1R; cited from earlier work

Row | Molecule | importance of the supplemental cytokine for T-ALL growth (human T-ALL lymphoblasts) | also measured
1 | IGF-1: ligand for a tyrosine kinase transmembrane receptor (CD221); recombinant supplement | may be dispensable | –
2 | insulin: ligand for a tyrosine kinase transmembrane receptor (CD220); component of the basal medium | – | Kd (IGF1R): 200 to 400 nM
3 | B1 | – | effect of IGF1R blocking antibody on cell growth (human T-ALL lymphoblasts; T-ALL on mouse MS5-DL1 feeders): significantly impaired cell growth
4 | B2 | the most important factor | –
